Measurements taken from publication PMC10506224, “Isolation and characterization of glutathione S-transferase genes and their transcripts in Saccharina japonica (Laminariales, Phaeophyceae) during development and under abiotic stress” (BMC Plant Biology, 2023).

Substrate: O=[N+]([O-])c1ccc(Cl)c([N+](=O)[O-])c1
Test: purified protein
Type: biochemical, Saccharina japonica
Settings: GSH co-substrate (30 μL of 60 mM in 900 μL)
[1] = 0.1 M potassium phosphate pH 7.0, 20 °C
[2] = 0.1 M potassium phosphate pH 8.0, 20 °C

B1: SjGST20 (Saccharina japonica) (protein)
chain: MVPVFNYFGVPARGEATRVALAVAGVEFVDKIIPYAELHASGFRAVPVYQLDGTNYTQSTALLRYAGKLGGTYPEDPLEALKVDEIVMMVEDVFINIFADMKEKDEAKKLATHQALIAGKVKYLIEDIASKLEANTASPFCVGPSLTIADIMVHAMIATFQAGFLVGVPTTTAEDICPSLKGLDDAVMEHPKVKAYYASKA
Question: Which results are given for B1?
Answer: Km [1]: 2706 µM; kcat [1]: 9.83 s⁻¹; kcat/Km [1]: 3630 M⁻¹ s⁻¹

B2: SjGST22 (Saccharina japonica) (protein)
chain: MAPKLVLTYFDIAGAAEAVRWALEQSGLEWEDKRLTRDEFGALKPSLPNGQVPILEVDGFVLAQSQAILRYVGKLGGLYPSDDLEAAKCDSVLDCATDFGINIRPSFMEKDQAKKMEMREDLAANFIPKWLASMEKQLASTGGIYFGEKMTVADIMIALRVKGLKGGVLDGVPTTIADSYPNLIALHDSIVGEPKIAAFIAKHAK
Question: Which results are given for B2?
Answer: Km [2]: 674 µM; kcat [2]: 0.478 s⁻¹; kcat/Km [2]: 709 M⁻¹ s⁻¹
